Patent US12534531 (MacroGenics, dated 2026)

T1: human LAG-3 expressed on NSO cells (human, UniProt P18627 29-525)
T1 sequence: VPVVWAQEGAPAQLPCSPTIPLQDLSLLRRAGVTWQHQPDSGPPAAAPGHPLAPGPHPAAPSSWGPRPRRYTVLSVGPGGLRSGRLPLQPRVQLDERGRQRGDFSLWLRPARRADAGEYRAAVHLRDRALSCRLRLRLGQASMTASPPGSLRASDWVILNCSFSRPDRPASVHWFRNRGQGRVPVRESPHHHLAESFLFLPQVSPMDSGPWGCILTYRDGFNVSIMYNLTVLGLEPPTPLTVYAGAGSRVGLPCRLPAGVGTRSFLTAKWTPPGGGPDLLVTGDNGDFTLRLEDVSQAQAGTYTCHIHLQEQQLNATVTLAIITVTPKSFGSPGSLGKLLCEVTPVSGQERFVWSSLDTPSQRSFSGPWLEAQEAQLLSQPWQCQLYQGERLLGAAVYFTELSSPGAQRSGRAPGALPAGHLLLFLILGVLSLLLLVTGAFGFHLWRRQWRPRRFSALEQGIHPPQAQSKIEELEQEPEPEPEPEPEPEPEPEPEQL

T2: biotinylated-soluble human LAG-3-Fc fusion protein (human, UniProt P18627 23-450, biotinylated (site not stated))
T2 construct: whole entry named; also called shLAG-3; shLAG-3-Fc; not shown: Fc
T2 sequence: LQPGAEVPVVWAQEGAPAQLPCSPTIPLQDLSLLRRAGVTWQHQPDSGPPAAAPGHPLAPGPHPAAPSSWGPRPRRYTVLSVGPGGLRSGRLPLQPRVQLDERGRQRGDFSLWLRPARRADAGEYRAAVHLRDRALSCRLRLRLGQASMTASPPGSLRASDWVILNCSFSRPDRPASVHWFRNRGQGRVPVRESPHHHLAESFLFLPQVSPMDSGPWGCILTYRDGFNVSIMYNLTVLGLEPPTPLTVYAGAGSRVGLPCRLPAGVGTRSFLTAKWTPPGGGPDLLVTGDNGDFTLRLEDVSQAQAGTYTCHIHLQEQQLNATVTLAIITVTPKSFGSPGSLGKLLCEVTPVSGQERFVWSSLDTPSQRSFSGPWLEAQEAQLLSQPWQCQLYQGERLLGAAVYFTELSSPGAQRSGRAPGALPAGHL


What was measured:
[1] = target: T3, human PD-1 expressed on the surface of cells (NSO cells expressing human PD-1; MNFAT-luc2/PD-1 Jurkat cells) (human, UniProt Q15116 21-288); assay: FACS saturation binding to NSO cells expressing PD-1; SM; SD 0.5742
T3 construct: also called cell surface PD-1; PDCD1 transfected NSO cells expressing PD-1
T3 sequence (Q15116 21-288): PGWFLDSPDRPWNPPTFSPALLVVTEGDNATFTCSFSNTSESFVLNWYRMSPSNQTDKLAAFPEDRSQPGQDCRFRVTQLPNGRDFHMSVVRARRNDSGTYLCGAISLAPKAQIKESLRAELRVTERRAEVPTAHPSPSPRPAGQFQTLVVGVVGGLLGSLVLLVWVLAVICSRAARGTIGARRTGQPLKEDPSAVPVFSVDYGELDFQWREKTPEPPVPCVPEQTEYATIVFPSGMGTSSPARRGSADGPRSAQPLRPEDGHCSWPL

[2] = target: T1, human LAG-3 expressed on NSO cells; assay: FACS saturation binding to NSO cells expressing LAG-3; SM; SD 0.8075
[3] = target: T3, human PD-1 expressed on the surface of …; assay: FACS: inhibition of sPD-L1 binding to PD-1 on NSO cells; SM; SD 0.3307
[4] = target: T3, human PD-1 expressed on the surface of …; assay: FACS: inhibition of sPD-L2 binding to PD-1 on NSO cells; SM; SD 0.7736
[5] = target: T2, biotinylated-soluble human LAG-3-Fc …; assay: FACS: inhibition of shLAG-3-Fc binding to MHC II on Daudi cells (column head prints EC50); SM; SD 2.9177
[6] = target: T1, human LAG-3 expressed on NSO cells; assay: FACS saturation binding to NSO cells expressing LAG-3; SM; SD 0.5770
[7] = target: T3, human PD-1 expressed on the surface of …; assay: FACS: inhibition of sPD-L1 binding to PD-1 on NSO cells; SM; SD 0.1729
[8] = target: T3, human PD-1 expressed on the surface of …; assay: FACS: inhibition of sPD-L2 binding to PD-1 on NSO cells; SM; SD 0.0846
[9] = target: T3, human PD-1 expressed on the surface of …; assay: FACS saturation binding to NSO cells expressing PD-1; single experiment
[10] = target: T2, biotinylated-soluble human LAG-3-Fc …; assay: FACS: inhibition of shLAG-3-Fc binding to MHC II on Daudi cells (column head prints EC50); SM; SD 1.2674

| EC50 [1] [µM] | EC50 [2] [nM] | IC50 [3] [nM] | IC50 [4] [nM] | IC50 [5] [µM] | EC50 [6] [µM] | IC50 [7] [nM] | IC50 [8] [nM] | EC50 [9] [nM] | EC90 [9] [µM] | IC50 [10] [nM] | Binder |
| --- | --- | --- | --- | --- | --- | --- | --- | --- | --- | --- | --- |
| 3.22 | 925 | 1650 | 2950 | 3.27 | – | – | – | – | – | – | DART E (bispecific antibody, human IgG4 S228P, kappa) chain 1: DIVMTQTPLSLSVTPGQPASISCKSSQSLLHSDAKTYLNWLLQKPGQPPERLIYLVSELDSGVPDRFSGSGSGTDFTLKISRVEAEDVGVYYCWQGTHFPYTFGGGTKVEIKGGGSGGGGQVQLVQSGAEVKKPGASVKVSCKASGYSFTSYWMNWVRQAPGQGLEWIGVIHPSDSETWLDQKFKDRVTITVDKSTSTAYMELSSLRSEDTAVYYCAREHYGTSPFAYWGQGTLVTVSSLGGGSGASTKGPSVFPLAPCSRSTSESTAALGCLVKDYFPEPVTVSWNSGALTSGVHTFPAVLQSSGLYSLSSVVTVPSSSLGTKTYTCNVDHKPSNTKVDKRVESKYGPPCPPCPAPEFLGGPSVFLFPPKPKDTLYITREPEVTCVVVDVSQEDPEVQFNWYVDGVEVHNAKTKPREEQFNSTYRVVSVLTVLHQDWLNGKEYKCKVSNKGLPSSIEKTISKAKGQPREPQVYTLPPSQEEMTKNQVSLTCLVKGFYPSDIAVEWESNGQPENNYKTTPPVLDSDGSFFLYSRLTVDKSRWQEGNVFSCSVMHEALHNHYTQKSLSLSLG chain 2: EIVLTQSPATLSLSPGERATLSCRASESVDNYGMSFMNWFQQKPGQPPKLLIHAASNQGSGVPSRFSGSGSGTDFTLTISSLEPEDFAVYFCQQSKEVPYTFGGGTKVEIKGGGSGGGGQVQLVQSGAEVKKPGASVKVSCKASGYTFTNYGMNWVRQAPGQGLEWMGWINTYTGESTYADDFEGRFVFSMDTSASTAYLQISSLKAEDTAVYYCARESLYDYYSMDYWGQGTTVTVSSLGGGSGRTVAAPSVFIFPPSDEQLKSGTASVVCLLNNFYPREAKVQWKVDNALQSGNSQESVTEQDSKDSTYSLSSTLTLSKADYEKHKVYACEVTHQGLSSPVTKSFNRGEC |
| – | – | – | – | – | 5.01 | 570 | 839 | 1430 | 14.6 | 1530 | DART F (bispecific antibody, human IgG1, kappa, L234A L235A) chain 1: QVQLVQSGAEVKKPGASVKVSCKASGYSFTSYWMNWVRQAPGQGLEWIGVIHPSDSETWLDQKFKDRVTITVDKSTSTAYMELSSLRSEDTAVYYCAREHYGTSPFAYWGQGTLVTVSSASTKGPSVFPLAPSSKSTSGGTAALGCLVKDYFPEPVTVSWNSGALTSGVHTFPAVLQSSGLYSLSSVVTVPSSSLGTQTYICNVNHKPSNTKVDKRVEPKSCDKTHTCPPCPAPEAAGGPSVFLFPPKPKDTLYITREPEVTCVVVDVSHEDPEVKFNWYVDGVEVHNAKTKPREEQYNSTYRVVSVLTVLHQDWLNGKEYKCKVSNKALPAPIEKTISKAKGQPREPQVYTLPPSREEMTKNQVSLSCAVKGFYPSDIAVEWESNGQPENNYKTTPPVLDSDGSFFLVSKLTVDKSRWQQGNVFSCSVMHEALHAKYTQKSLSLSPG chain 2: EIVLTQSPATLSLSPGERATLSCRASESVDNYGMSFMNWFQQKPGQPPKLLIHAASNQGSGVPSRFSGSGSGTDFTLTISSLEPEDFAVYFCQQSKEVPYTFGGGTKVEIKRTVAAPSVFIFPPSDEQLKSGTASVVCLLNNFYPREAKVQWKVDNALQSGNSQESVTEQDSKDSTYSLSSTLTLSKADYEKHKVYACEVTHQGLSSPVTKSFNRGEC chain 3: QVQLVQSGAEVKKPGASVKVSCKASGYSFTSYWMNWVRQAPGQGLEWIGVIHPSDSETWLDQKFKDRVTITVDKSTSTAYMELSSLRSEDTAVYYCAREHYGTSPFAYWGQGTLVTVSSASTKGPSVFPLAPSSKSTSGGTAALGCLVKDYFPEPVTVSWNSGALTSGVHTFPAVLQSSGLYSLSSVVTVPSSSLGTQTYICNVNHKPSNTKVDKRVEPKSCDKTHTCPPCPAPEAAGGPSVFLFPPKPKDTLYITREPEVTCVVVDVSHEDPEVKFNWYVDGVEVHNAKTKPREEQYNSTYRVVSVLTVLHQDWLNGKEYKCKVSNKALPAPIEKTISKAKGQPREPQVYTLPPSREEMTKNQVSLWCLVKGFYPSDIAVEWESNGQPENNYKTTPPVLDSDGSFFLYSKLTVDKSRWQQGNVFSCSVMHEALHNHYTQKSLSLSPGGGGSGGGSGGGDIVMTQTPLSLSVTPGQPASISCKSSQSLLHSDAKTYLNWLLQKPGQPPERLIYLVSELDSGVPDRFSGSGSGTDFTLKISRVEAEDVGVYYCWQGTHFPYTFGGGTKVEIKGGGSGGGGQVQLVQSGAEVKKPGASVKVSCKASGYSFTSYWMNWVRQAPGQGLEWIGVIHPSDSETWLDQKFKDRVTITVDKSTSTAYMELSSLRSEDTAVYYCAREHYGTSPFAYWGQGTLVTVSSGGCGGGEVAALEKEVAALEKEVAALEKEVAALEK chain 4: EIVLTQSPATLSLSPGERATLSCRASESVDNYGMSFMNWFQQKPGQPPKLLIHAASNQGSGVPSRFSGSGSGTDFTLTISSLEPEDFAVYFCQQSKEVPYTFGGGTKVEIKGGGSGGGGQVQLVQSGAEVKKPGASVKVSCKASGYTFTNYGMNWVRQAPGQGLEWMGWINTYTGESTYADDFEGRFVFSMDTSASTAYLQISSLKAEDTAVYYCARESLYDYYSMDYWGQGTTVTVSSGGCGGGKVAALKEKVAALKEKVAALKEKVAALKE |
